The text below walks through data of patent US9777041B2, “Protein nanofibers from self-assembling pentamers” (New York University, priority 2013, dated 2017).

A short description of data set [1]: Curcumin binding fluorescence. Conditions: in the presence of Zn^2+. The text has this: FIG. 40. Fluorescence of C and Q or with incorporated trifluoroleucine/TFL (C TFL and Q TFL) in the presence of no metal, Ni (II), or Zn (II) and curcumin. An increase in fluorescence indicates structural stability of the protein as it is able to bind with curcumin, the fluorescent probe in this case.

Data set [2] in a line: ATR-FTIR secondary structure of solid-state protein. In kind it is physicochemical. The note with it: 10 μM protein in 50 mM PB. How it is done:
Attenuated Total Reflectance Fourier Transform Infrared Spectroscopy (ATR-FTIR): ATR-FTIR experiments were performed using Perkin Elmer System 2000 FT-IR with DuraSamplIR II T diamond ATR accessory and equipped with a MCT-A detector. Approximately, 5 μL of peptide solution (10 μM in 50 mM PB, pH 4, 8, and 10) was added on the diamond ATR surface. The spectrum (128 scans) was measured at room temperature over a range of 4000-400 cm^−1 with 0.5 cm^−1 resolution. PeakFit software was used to process the data, which involved a 2nd derivative zero baseline correction of the amide I region between 1700-1600 cm^−1 and deconvolution of peaks with a Gaussian function. All readings represent the average of two trials.
To quantifying the secondary structure of the protein in its solid-state, ATR-FTIR experiments were conducted to evaluate secondary structure of insoluble Q fibers at pH 4, 8, and 10 (Table 8). The frequency measured in the regions of the amide I and amide II absorptions of a protein correlate to the secondary structural motifs within the protein, and were thereby used to assess conformation of the protein in its solid-state (FIGS. 20a-20d). Secondary structure conformation based on ATR-FTIR data for Q in 50 mM PB at pH 4, 8, and 10, and in the presence of curcumin at a 5:1 molar ratio with Q at pH 4 are shown in […]. Percent composition was determined from relative areas of peaks fit to spectra (FIGS. 20a-20d).
Secondary structure conformation based on ATR-FTIR data for 10 μM protein in 50 mM PB before and after templation of AuNPs is provided in Table 10. Percent composition was determined from relative areas of peaks fit to spectra (see spectra FIGS. 37a-37d, FIGS. 38a-38d).

The nature of data set [3]: Transmission electron microscopy of protein fibers. Format: physicochemical. The note with it: for fiber formation seen by TEM: pH 4, 50 mM PB. On the procedure: Transmission electron microscopy: A JEOL JEM-1400 transmission electron microscope (TEM) was used to study the supramolecular protein structure. […] After 1 minute, the grids were blotted using filter paper and rinsed with 3-4 drops Milli Q water to remove excess salts from the buffer. After blotting with filter paper, the sample was negatively stained by adding 3 μL of 1% filtered uranyl acetate, blotted using filter paper, and dried at room temperature for 10-15 minutes. ImageJ software was used to measure the fibers dimensions.

A short description of data set [4]: Confocal microscopy of protein fibers in the presence of curcumin. Format: physicochemical. Conditions: protein:curcumin 1:5, 50 mM phosphate buffer pH 4. How it is done:
FIGS. 7a-7c show confocal microscopy of CC, Q54, and COMPcc^S wt, in the presence of curcumin. The mixture of protein to curcumin were all at a ratio of 1:5. […] All different proteins are in 50 mM phosphate buffer, pH 4. Protein and curcumin samples were combined and incubated for 12 hours prior to imaging. […] The width of COMPcc^S wt shown in FIG. 7c was determined to be 12.72 μm. […] Overall, Q54 fibers appeared to be more uniform in width, as well as more robust and consistent in fiber formation.
Confocal microscopy: Samples were imaged using a Leica TCS SP2 AOBS confocal microscope system equipped with argon ion and HeNe lasers. A 63×/1.4 NA oil-immersion objective was used for all of the images. Lab-Tek II chambered #1.5 German coverglass system was used as the imaging slide. Curcumin was excited using the 458 nm line of the argon laser, and images were taken with the detection window set between 465 and 560 nm. The pinhole aperture was set at an Airy value of 1.0, which was equivalent to sampling an ˜500 nm vertical z slice of the fiber, as estimated by the axial resolution, rz,confocal≈1.4λcm n/NA^2 (NA, numerical aperture; n, refractive index; λcm, emission wavelength (525 nm)). Interference contrast images were obtained using the Leica tube optics HC 1×/B apparatus with a focusing Bertrand lens. The 3D reconstructions were constructed using ImageJ 64 1.43 in concert with Amira 5.43, employing the Volren 3D rendering routine.

A short description of data set [5]: Circular dichroism wavelength scans (secondary structure). In kind it is physicochemical. Conditions: for −θ222 × 10^3 / −θmin × 10^3: 10 μM protein; for random coil / α helices / β sheet: CD, K2D method. How it is done:
(§1) Circular dichroism: Circular dichroism (CD) measurements were conducted on a Jasco J-815 CD spectrometer. Wavelength and temperature scans were conducted with 10 μM (6.3×10^−2 mg/mL) protein concentrations. The wavelength spectrum was measured over a range from 190 to 250 nm with a step size of 1 nm Mean residue ellipticity (MRE) was calculated from raw data according to the procedure described in Gunasekar et al. 2009. Secondary structure analysis of α-helical, β-sheet, and random coil content was calculated with the K2D method using DichroWeb software. Temperature scans of each protein were performed over a range of 20-85° C. with a temperature step of 1° C./min at 222 nm. Scans were also performed at of 2° C./min and 5° C./min to evaluate dependence of thermal melt signatures on scan speed. All measurements were made in duplicates of independently prepared proteins and data represents the average. Thermodynamic properties of wt and Q were determined through analysis of thermal melts. A two-state model was used, where assumptions included monophasic behavior and reversible melting behavior. These assumptions were confirmed experimentally by melting (from 20 to 85° C.) and cooling (from 85 to 20° C.) the proteins. Calculation of thermodynamic parameters including Tm, ΔG°, ΔH°, and ΔS° were performed according to the method described by Greenfield.
To assess the secondary structure of the proteins under acidic as well as neutral and basic conditions in solution, CD measurements were performed. […] The presence of residue P28 towards the center of Q may have influenced the secondary structure, showing decreased helical content when compared to wt at pH 4 and 10 (FIG. 16). The negative control, L, was completely unstructured, devoid of helical content at pH 4 (FIG. 11). […] As the pH increased, the helical content of soluble Q protein increased.
Mean residual ellipticities from circular dichroism measurements at pH 4, 8, and 10 for wt, L, and Q. The data presented in Table 5 represents the average and standard deviation of at least two replicates.

For data set [6] the following is noted: without any evidence for protofibrils; cited from earlier work.
Data set [7] in a line: Circular dichroism thermal melts at 222 nm, van't Hoff analysis. Format: physicochemical. Conditions: for Tm: 10 μM protein; for ΔG° (free energy of folding): at 25° C.; for ΔS°: ΔS° = ΔH°/Tm. How it is done:
as §1
Thermodynamic properties were assessed via thermal melt of the proteins at 222 nm. Prior to calculating thermodynamic constants, assumptions of monophasic behavior and melt reversibility were confirmed experimentally for wt and Q at all pHs by melting and cooling proteins (FIGS. 18a-18d). The van't Hoff equation was applied to thermal melts of the proteins in the range of 20-85° C.

The term Tm denotes the temperature at the midpoint of the melting transition.

For “C: CC protein, SEQ ID NO:1, variant of COMPcc; coiled-coil forming homopentamers (MRGSHHHHHHGSIEGRAPQMLRELQETNAALQDVRELLRQQVKEITFLKNTSKL)”, the “binding to small molecule (curcumin fluorescence)” value in data set [1] is listed as “substantially increase the binding to small molecule”. In addition, in data set [2] (+AuNP (after templation)), the “Random, percent composition” value came to 16%; the “α helix, percent composition” value was determined as 30%; the “β sheet, percent composition” value was found to be 54%. For the same molecule, in data set [2] (before templation of AuNPs), the “Random, percent composition” value worked out at 28%; the “α helix, percent composition” value is recorded as 38%; the “β sheet, percent composition” value is listed as 33%. In addition, the “fiber formation seen by TEM” value in data set [3] is given as “not been observed to form fibers”. The “average width of protein fibers” value in data set [4] (20 mM protein, 100 mM curcumin, 12 hours) amounted to 19.24±12 μm.

“Qx: variant of Q54 void of the 6×his tag, SEQ ID NO:6 (VKEITFLKNTAPQMLRELQETNAALQDVRELLRQQSKL)”: in data set [2] (+AuNP (after templation)), the “Random, percent composition” value is on record as 20%; the “α helix, percent composition” value is given as 48%; the “β sheet, percent composition” value stood at 32%. In data set [2] (before templation of AuNPs), the “Random, percent composition” value stood at 29%; the “α helix, percent composition” value is listed as 45%; the “β sheet, percent composition” value came out at 26%.

Take “L: L44 protein, SEQ ID NO:3, variant of COMPcc; negative control swap protein (MRGSHHHHHHGSIEGRLQDVERLLRQQVKEITFLKNTAPQMLRELQETNAASKL) [reference compound]”: in data set [5] (pH 4), the “−θ222 × 10^3” value is reported as −0.41 10^3 deg cm^2 dmol^-1, the “−θmin × 10^3” value was 5.18 10^3 deg cm^2 dmol^-1, the random coil came to 43% and the α helices amounted to 9%. The molecule also returned a β sheet in data set [5] (pH 4) of 49%. In data set [5] (pH 8), the “−θ222 × 10^3” value was 3.54 10^3 deg cm^2 dmol^-1, the “−θmin × 10^3” value is 4.14 10^3 deg cm^2 dmol^-1, the random coil is 49% and the α helices was 13%. Also, in data set [5] (pH 8), the β sheet came to 38%. In data set [5] (pH 10), the “−θ222 × 10^3” value is listed as 3.40 10^3 deg cm^2 dmol^-1, the “−θmin × 10^3” value is given as 3.89 10^3 deg cm^2 dmol^-1, the random coil is listed as 52% and the α helices stood at 16%. Moreover, in data set [5] (pH 10), the β sheet was 32%. For the same molecule, in data set [3], the “fiber formation seen by TEM” value is “not been observed to form fibers”. Also, the “fiber formation seen by confocal microscopy” value in data set [4] is listed as “No fibers were seen”.

B1: wt: coiled-coil region of cartilage oligomeric matrix protein with the two cysteines replaced by serines, SEQ ID NO:4 (protein)
chain: MRGSHHHHHHGSGDLAPQMLRELQETNAALQDVRELLRQQVKEITFLKNTVMESDASGKLN
modifications: human
Take B1: in data set [5] (pH 4), the “−θ222 × 10^3” value is on record as 13.18 10^3 deg cm^2 dmol^-1, the “−θmin × 10^3” value is reported as 13.02 10^3 deg cm^2 dmol^-1, the random coil worked out at 32% and the α helices is reported as 50%. This molecule showed a β sheet in data set [5] (pH 4) of 18%. Further, in data set [5] (pH 8), the “−θ222 × 10^3” value is reported as 18.28 10^3 deg cm^2 dmol^-1, the “−θmin × 10^3” value is 17.61 10^3 deg cm^2 dmol^-1, the random coil is given as 30% and the α helices is reported as 64%. Moreover, the β sheet in data set [5] (pH 8) was determined as 6%. In addition, in data set [5] (pH 10), the “−θ222 × 10^3” value is 17.84 10^3 deg cm^2 dmol^-1, the “−θmin × 10^3” value is reported as 17.13 10^3 deg cm^2 dmol^-1, the random coil is 31% and the α helices worked out at 63%. This molecule also returned a β sheet in data set [5] (pH 10) of 6%. The molecule further came in with a fiber diameters in data set [3] (pH 8, 10 mM PB) of 17±3 nm. Besides, the width of fibers in data set [4] (12 hours) stood at 12.72 μm. Further, the “fiber diameters (known)” value in data set [6] is listed as 10-15 nm. In data set [7] (pH 4), the “ΔH° (van't Hoff enthalpy)” value was -29.9 kcal/mol, the Tm worked out at 48.2 °C, the “ΔG° (free energy of folding)” value is -2.2 kcal/mol and the ΔS° was -93 cal/(mol·K). In data set [7] (pH 8), the “ΔH° (van't Hoff enthalpy)” value is -31.0 kcal/mol, the Tm was found to be 48.8 °C, the “ΔG° (free energy of folding)” value was -2.3 kcal/mol and the ΔS° is -96.6 cal/(mol·K). In data set [7] (pH 10), the “ΔH° (van't Hoff enthalpy)” value is -29.8 kcal/mol, the Tm stood at 46.3 °C, the “ΔG° (free energy of folding)” value was -2.0 kcal/mol and the ΔS° is -93.3 cal/(mol·K).
